Assays:
[1] = Lead acetate (PbA/PbS) assay, catalytic H2S production from cysteine; assay type: biochemical
Description: Further work was conducted as follows with regard to the catalytic production of H2S by PHFs. PHF (SJJR; 10 mg/mL) was added to a mixture of L-cysteine (10 mM) and […] (PLP; 1 mM) in a 96-well plate and then covered with a blotting paper saturated with lead acetate. After 24 hours, the lead acetate paper was removed and scanned. The lead sulfide dots were analyzed for average integrated density using ImageJ. After every 24 hours, the wells were replenished with L-cysteine (10 mM) and covered with the lead acetate paper and the lead sulfide dots were analyzed.
Lead acetate assay: The kinetics and catalysis coefficients for PHF catalyzed H2S production were determined using lead acetate assay (PbA/PbS assay) as generally described in Hine and Mitchell, “Endpoint and Kinetic Measurement of Hydrogen Sulfide Production Capacity in Tissue Extracts” Bio-Protocol, 7 (13), e2382, 2017). Briefly: Reaction mixtures (150 μL/well) containing PHF or enzyme (CGL), enzyme co-factor (PLP) and substrate (e.g., cysteine) were tested in 96-well plates Immediately after addition of catalyst, 96-well plates were covered with lead acetate saturated paper and placed inside a 37° C. cell culture incubator. At a predetermined time point, the lead acetate paper was removed and scanned, and the lead sulfide dots analyzed with ImageJ using the IntDen function. A calibration curve was prepared with different concentrations of sodium hydrosulfide plotted against the integrated density obtained on lead acetate/lead sulfide paper. The presence of pyruvic acid after reaction was confirmed in a preliminary experiment by liquid chromatography—mass spectroscopy.
To determine the steady-state kinetic parameters experiments were carried out with different initial substrate concentrations. The initial (linear) slope from the graph of H2S concentration versus time at each substrate concentration was used to determine the reaction velocity, which was plotted against initial cysteine concentrations to obtain Michaelis-Menten curves (FIGS. 5 and 6). Least squares non-linear fitting was used to determine values of Km and Vmax from the equation v=Vmax [S]/(Km+[S]).

HR-TEM size = assay type: physicochemical
Description: FIG. 3: Panel A) a hypothetical schematic illustration of the breakdown of cysteine to hydrogen sulfide, ammonia and pyruvic acid. While the present disclosure is not limited to any particular mechanism and an understanding of the mechanism is not necessary to practice the invention, it is believed that polyhydroxy fullerenes (PHF) mimic carbon-sulfur lyases. It was found during work conducted during development of embodiments herein that PHFs catalyze the breakdown of cysteine under physiological conditions. Panel B) HR-TEM image of PHF (C60(OH)9O7Na6) showing a cluster size of 3.4±0.5 nm. Panel C) HR-TEM image of CGL showing a molecular size of 4.1±0.4 nm.

[2] = Without PLP, substrate L-Cysteine

Row | Molecule | H2S produced ([1]; PLP with cysteine, no PHF, in 24 hours) [mM] | molecular size (HR-TEM size) [nm] | H2S production at room temperature ([1]; PBS) | H2S production at 4° C. ([1]; PBS, presence or absence of PLP) | KCAT ([1]; With PLP, substrate L-Cysteine) [s⁻¹] | Km ([1]; With PLP, substrate L-Cysteine) [mM] | Vmax ([1]; With PLP, substrate L-Cysteine) [nM/s] | KCAT [1, 2] [s⁻¹] | Vmax [1, 2] [nM/s]
1 | Cc1ncc(COP(=O)(O)O)c(C=O)c1O [PLP, pyridoxal-5′-phosphate, reference compound] | 0.024 | – | – | – | – | – | – | – | –
2 | cystathionine γ-lyase (protein, UniProt P32929 1-405, looked up, enzyme producing H2S from cysteine, comparator catalyst) Cystathionine gamma-lyase: MQEKDASSQGFLPHFQHFATQAIHVGQDPEQWTSRAVVPPISLSTTFKQGAPGQHSGFEYSRSGNPTRNCLEKAVAALDGAKYCLAFASGLAATVTITHLLKAGDQIICMDDVYGGTNRYFRQVASEFGLKISFVDCSKIKLLEAAITPETKLVWIETPTNPTQKVIDIEGCAHIVHKHGDIILVVDNTFMSPYFQRPLALGADISMYSATKYMNGHSDVVMGLVSVNCESLHNRLRFLQNSLGAVPSPIDCYLCNRGLKTLHVRMEKHFKNGMAVAQFLESNPWVEKVIYPGLPSHPQHELVKRQCTGCTGMVTFYIKGTLQHAEIFLKNLKLFTLAESLGGFESLAELPAIMTHASVLKNDRDVLGISDTLIRLSVGLEDEEDLLEDLDQALKAAHPPSGSHS | – | 4.1±0.4 | produced H2S only in presence of PLP | No H2S was produced | 130 | 25.4 | 2.9 | 5800 | 1.3

— US12714679B2, “Fullerenes to treat diseases and conditions” (The Cleveland Clinic Foundation, priority 2018, dated 2026)
